Patent publication US20200317802A1

T1: human ADAMTS4 (R&D Systems cat #4307-AD) (human) (UniProt O75173)
T1 sequence (looked up): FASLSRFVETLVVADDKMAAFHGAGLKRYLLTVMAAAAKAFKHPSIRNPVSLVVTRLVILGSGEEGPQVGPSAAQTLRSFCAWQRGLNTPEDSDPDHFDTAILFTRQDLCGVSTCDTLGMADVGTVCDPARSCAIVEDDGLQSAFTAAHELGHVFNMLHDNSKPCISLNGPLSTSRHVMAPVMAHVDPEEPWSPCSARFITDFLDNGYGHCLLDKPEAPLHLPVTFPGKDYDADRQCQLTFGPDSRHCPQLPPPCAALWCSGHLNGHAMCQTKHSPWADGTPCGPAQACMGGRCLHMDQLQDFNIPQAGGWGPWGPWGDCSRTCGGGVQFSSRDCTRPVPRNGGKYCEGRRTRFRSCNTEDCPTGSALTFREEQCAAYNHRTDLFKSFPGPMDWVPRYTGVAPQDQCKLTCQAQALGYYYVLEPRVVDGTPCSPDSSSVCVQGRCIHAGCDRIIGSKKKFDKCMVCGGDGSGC


Assays:
[1] = molecular target: bovine recombinant ADAMTS5 (bovine); assay: SPR off-rate, Biacore T100, ADAMTS5 immobilised, experiment 3
[2] = molecular target: T1, human ADAMTS4 (R&D Systems cat #4307-AD) (human)
[3] = molecular target: activated human MMP-1 (human) (UniProt P03956)
[4] = molecular target: recombinant human ADAMTS5 (R&D Systems cat #2198-AD) (human) (UniProt Q9UNA0); assay: cell-based or functional assay
recombinant human ADAMTS5 (R&D Systems cat #2198-AD) (human), sequence (Q9UNA0 262-622 limits assumed): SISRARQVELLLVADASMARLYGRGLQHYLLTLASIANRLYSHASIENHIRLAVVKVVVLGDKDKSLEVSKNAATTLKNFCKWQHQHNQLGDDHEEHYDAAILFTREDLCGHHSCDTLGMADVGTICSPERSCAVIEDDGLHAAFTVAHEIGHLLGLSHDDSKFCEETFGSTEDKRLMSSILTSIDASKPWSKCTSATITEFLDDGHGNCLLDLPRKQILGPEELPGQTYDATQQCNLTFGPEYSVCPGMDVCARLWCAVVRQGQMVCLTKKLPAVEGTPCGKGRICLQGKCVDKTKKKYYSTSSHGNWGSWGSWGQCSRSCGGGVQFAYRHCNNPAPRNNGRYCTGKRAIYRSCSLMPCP

activated human MMP-1 (human), sequence (P03956 100-469 limits assumed): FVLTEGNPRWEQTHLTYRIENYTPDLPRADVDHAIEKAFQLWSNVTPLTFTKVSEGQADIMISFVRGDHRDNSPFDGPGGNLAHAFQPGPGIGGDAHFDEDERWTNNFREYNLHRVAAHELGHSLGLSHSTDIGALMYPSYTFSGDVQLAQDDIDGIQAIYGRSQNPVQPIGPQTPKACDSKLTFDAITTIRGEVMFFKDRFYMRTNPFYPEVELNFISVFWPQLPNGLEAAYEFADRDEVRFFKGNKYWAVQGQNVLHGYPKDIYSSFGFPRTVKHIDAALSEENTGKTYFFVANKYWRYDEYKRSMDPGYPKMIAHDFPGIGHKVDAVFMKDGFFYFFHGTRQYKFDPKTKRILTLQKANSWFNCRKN

| Binder | koff [1] | other results |
| --- | --- | --- |
| Nanobody 11B06 (VHH) VHH: EVQLVESGGGLVQAGGSLRLSCAASGLTFRRNAMGWFRQAPGKERELLAGINWSGGTTYYVDSVKGRFTISRDNAKNTVDLQMISPKPEDTAVYYCAADGDIGTLVNDENPRYWGQGTLVTVSS | 0.00024 s⁻¹ |  |
| Nanobody 2F03 (VHH) VHH: EVQLVESGGGLVQAGGSLRLSCAASGRTVSSYAMGWFRLAPGKEREFVAGISRSAERTYYVDSLKGRFTISRDSAKNTVYLHMNRLKPEDTAVYYCAADLDPNRIFSREEYAYWGQGTLVTVSS | 4.3e-05 s⁻¹ |  |
| Nanobody 9D03 (VHH) VHH: EVQLVESGGGLVQSGGSLRLSCAASGSAVSVNAMAWYRQAPGKQRDFVAGISRSAGRTYYTDSVKDRFTIARDSAKNTVYLQMNRLKPEDTAVYYCAADLDPNRIFSRDEAAYWGQGTLVTVSS | 0.00099 s⁻¹ |  |
| rhTIMP3 (protein, human, UniProt P35625 24-211, looked up) CTCSPSHPQDAFCNSDIVIRAKVVGKKLVKEGPFGTLVYTIKQMKMYRGFTKMPHVQYIHTEASESLCGLKLEVNKYQYLLTGRVYDGKMYTGLCNFVERWDQLTLSQRKGLNYRYHLGCNCKIKSCYYLPCFVTSKNECLWTDMLSNFGYPGYQSKHYACIRQKGGYCSWYRGWAPPDKSIINATDP |  | IC50 (read off the curve) (human ADAMTS-4 AlphaLISA) [right panel] [2]: 2 nM; IC50 (read off the curve) (human MMP-1 activity, FRET peptide substrate) [3]: 5 nM; Human AlphaLISA % inhibition [4]: 100%; Human AlphaLISA IC50 [4]: 0.61 nM |

Continued, in another order:

| koff [1] | Binder | other results |
| --- | --- | --- |
| 0.00062 s⁻¹ | Nanobody 2D07 (VHH) VHH: EVQLVESGGGLVQAGGSLRLSCSFSGPGRTFARYAMGWFRQAPGKNRDFITGISGSGDSTYYVYPMKDRFTISRDNAKNMVYLQMNALKPEDTAVYYCAADREINRIANDKELDFWGQGTLVTVSS |  |
| 0.00035 s⁻¹ | Nanobody 3D01 (VHH) VHH: EVQLVESGGGLVQAGGSLRLSCAPSGFTFSPYYMGWFRQAPGKERDFVAAISRSRGTTYYLDSTEGRFTISRDNANDTVYLQMNSLNPEDTAVYYCAAGRSPGDPSRTYLYDYWGQGTLVTVSS |  |
| 0.00017 s⁻¹ | Nanobody 2A12 (VHH) VHH: EVQLVESGGGLVQAGGSLRLSCAASGRTFSSYAMGWFRQAPGKERDFVAGISRSAGRTYYVDSVKGRFTISRDSAKNTVYLQMNRLKPEDTAVYYCAADLDPNRIFSRDEAAYWGQGTLVTVSS |  |
| 0.0011 s⁻¹ | Nanobody 3B02 (VHH) VHH: EVQLVESGGGFVQAGGSLRLSCVASRRTISSGTMGWFRQAPGKEREFVAAIRWSSGMPYYLDSVMDRFTISRDNAKNTVSLQMNSLQPEDTAVYYCAADRSAFRDPSFDVNYEYWGRGTLVTVSS |  |
